The target of this experiment is T1, SARS-CoV-2 spike protein RBD-Fc fusion protein, wild type (SARS-CoV-2, UniProt P0DTC2).
T1 construct: source: bought: Sino Biological
The experiment is described as follows: ELISA. Particulars: both partners purified. (In general: ELISA stands for enzyme-linked immunosorbent assay.)

B1: LW25.5, individual helix 1 of LCB1 (peptide)
chain: DKEWILQKIYEIMRLLDEL
HELM: PEPTIDE1{[O=C1N[C@H]2[C@H](CS[C@H]2CCCCC(=O)[*:2])N1].[O=C(COCCOCCN[*:1])[*:2]].D.K.E.W.I.L.Q.K.I.Y.E.I.M.R.L.L.D.E.L.[am]}$$$$V2.0
SMILES: CC[C@H](C)[C@H](NC(=O)[C@H](Cc1c[nH]c2ccccc12)NC(=O)[C@H](CCC(=O)O)NC(=O)[C@H](CCCCN)NC(=O)[C@H](CC(=O)O)NC(=O)COCCOCCNC(=O)CCCC[C@@H]1SC[C@@H]2NC(=O)N[C@@H]21)C(=O)N[C@@H](CC(C)C)C(=O)N[C@@H](CCC(N)=O)C(=O)N[C@@H](CCCCN)C(=O)N[C@H](C(=O)N[C@@H](Cc1ccc(O)cc1)C(=O)N[C@@H](CCC(=O)O)C(=O)N[C@H](C(=O)N[C@@H](CCSC)C(=O)N[C@@H](CCCNC(=N)N)C(=O)N[C@@H](CC(C)C)C(=O)N[C@@H](CC(C)C)C(=O)N[C@@H](CC(=O)O)C(=O)N[C@@H](CCC(=O)O)C(=O)N[C@@H](CC(C)C)C(N)=O)[C@@H](C)CC)[C@@H](C)CC
notes: source: synthetic peptide (Fmoc/tBu solid-phase synthesis, preparative HPLC)
On to B1, for which the IC50 is more than 200 nM.

B2: LW25.6, individual helix 2 of LCB1 (peptide)
chain: GHAEASMRVSDLIYEFMKKG
HELM: PEPTIDE1{[O=C1N[C@H]2[C@H](CS[C@H]2CCCCC(=O)[*:2])N1].[O=C(COCCOCCN[*:1])[*:2]].G.H.A.E.A.S.M.R.V.S.D.L.I.Y.E.F.M.K.K.G.[am]}$$$$V2.0
SMILES: CC[C@H](C)[C@H](NC(=O)[C@H](CC(C)C)NC(=O)[C@H](CC(=O)O)NC(=O)[C@H](CO)NC(=O)[C@@H](NC(=O)[C@H](CCCNC(=N)N)NC(=O)[C@H](CCSC)NC(=O)[C@H](CO)NC(=O)[C@H](C)NC(=O)[C@H](CCC(=O)O)NC(=O)[C@H](C)NC(=O)[C@H](Cc1c[nH]cn1)NC(=O)CNC(=O)COCCOCCNC(=O)CCCC[C@@H]1SC[C@@H]2NC(=O)N[C@@H]21)C(C)C)C(=O)N[C@@H](Cc1ccc(O)cc1)C(=O)N[C@@H](CCC(=O)O)C(=O)N[C@@H](Cc1ccccc1)C(=O)N[C@@H](CCSC)C(=O)N[C@@H](CCCCN)C(=O)N[C@@H](CCCCN)C(=O)NCC(N)=O
notes: as for B1
As to B2, the IC50 was more than 200 nM.

For orientation: IC50 means the concentration that inhibits the measured activity by half. Low values mean greater potency in that assay, high ones weaker potency in that assay.

These data come from publication PMC9181698 (International Journal of Molecular Sciences, 2022).
